Reference: US20030027303A1

What was measured:
Assay in all cases: cell-based or functional assay
[1] = molecular target: gut proteases of T. commodus (crude gut extract) (Teleogryllus commodus)
[2] = molecular target: gut proteases of C. rufifacies (crude gut extract) (Chrysomya rufifacies)
[3] = molecular target: gut proteases of L. serricata (crude gut extract) (Lucilla sericata)
[4] = molecular target: gut proteases of C. zealandica (crude gut extract) (Costelytra zealandica)
[5] = molecular target: gut proteases of S. litura (crude gut extract) (Spodoptera litura)
[6] = molecular target: gut proteases of H. armigera (crude gut extract) (Helicoverpa armigera)
[7] = molecular target: gut proteases of H. punctigera (crude gut extract) (Helicoverpa punctigera)
[8] = molecular target: gut proteases of W. cervinata (crude gut extract) (Wiseana cervinata)
[9] = molecular target: gut proteases of sugar cane grub (crude gut extract)
[10] = molecular target: gut proteases of A. infusa (crude gut extract) (Agrotis infusa)
[11] = molecular target: gut proteases of C. obliquana (crude gut extract) (Ctenopseustis obliquana)
[12] = molecular target: gut proteases of A. tasmaniae (crude gut extract) (Aphodius tasmaniae)
[13] = molecular target: gut proteases of P. opercullela (crude gut extract) (Phthorimaea opercullela)
[14] = molecular target: gut proteases of P. octo (crude gut extract) (Planotortrix octo)
[15] = molecular target: gut proteases of E. postvitiana (crude gut extract) (Epiphyas postvittana)

casein hydrolysis (% control) [1]: 35 % control
casein hydrolysis (% control) [2]: 37.8 % control
casein hydrolysis (% control) [3]: 100 % control
casein hydrolysis (% control) [4]: 54.7 % control
casein hydrolysis (% control) [5]: 33.6 % control
casein hydrolysis (% control) [6]: 32.7 % control
casein hydrolysis (% control) [7]: 29.3 % control
casein hydrolysis (% control) [8]: 82.9 % control
casein hydrolysis (% control) [9]: 43.9 % control
casein hydrolysis (% control) [10]: 40.2 % control
casein hydrolysis (% control) [11]: 49.1 % control
casein hydrolysis (% control) [12]: 34.2 % control
casein hydrolysis (% control) [13]: 100 % control
casein hydrolysis (% control) [14]: 67.2 % control
casein hydrolysis (% control) [15]: 45.4 % control
B1: C1, N. alata chymotrypsin inhibitor (peak 1 from HPLC) (peptide)
peptide: DRICTNCCAGTKGCKYFSDDGTFVCEGESDPRNPKACTLNCDPRIAYGVCPRS
